For experiment [1], the target named is HIV-1 IIIB viral envelope protein gp41 (HIV-1 IIIB) (UniProt P04578). Briefly: cell-based or functional assay.
In experiment [2] the target is HIV-1 IIIB viral envelope protein gp41 (HIV-1 IIIB, UniProt P04578 512-856). The experiment can be described thus: cell-based or functional assay.

In experiment [1], “FB006M conjugated with human serum albumin (HSA) (from UniProt P02768 25-609)” displayed an IC50 (nM), 50% viral inhibition drug concentration, HIV-1 IIIB in fresh human PBMC cultures of 3.94 nM and a fold increase of the antiviral IC50 against FB006 of 2.8 fold.
Take Ac-SLEQIWNNMTWEEWDREINNYTELIHELIEESQNQQEKNEQELL-NH2 [FB005]: in experiment [2], the “IC50 (nM), 50% viral inhibition drug concentration, HIV-1 IIIB in fresh human PBMC cultures” value is 0.93 nM.
Ac-WEEWDREINNYTKLIHELIEESQNQQEKNEQELL-NH2 [FB006]: the “IC50 (nM), 50% viral inhibition drug concentration, HIV-1 IIIB in fresh human PBMC cultures” value in experiment [2] was determined as 1.41 nM.

Values taken from US20050089840A1 (FRONTIER BIOTECHNOLOGIES, published 2005).
